# Assay results as given in US20250057968A1, “ANTI-DLL3 ANTIBODY AND PHARMACEUTICAL USE THEREOF, AND ANTIBODY-DRUG CONJUGATE CONTAINING ANTI-DLL3 ANTIBODY” (Jiangsu Hengrui Pharmaceuticals Co., Ltd., priority 2021, published 2025).
# B1: Hu6 (antibody, human IgG1, kappa, V domains shown)
# VH: EVQLVQSGSELKKPGASVKVSCKASGYTFTDYYMNWVRQAPGQGLEWMGIINPYSGVTIYNHKFKGRFALSVDKSSNTAYLQISSLKAEDTAVYYCARQDSLLDYAMDYWGQGTTVTVSS
# VL: DIQMTQSPSSLSASVGDRVTITCHASQGISGNMGWLQQKPGKAPKGLIYHGANLEDGVPSRFSGSGSGADYTLTISSLQPEDFADYYCVQYAQFPYTFGGGTKVEIKR
# notes: also called hAb6L4H12
# B2: Hu100 (antibody, human IgG1, kappa, V domains shown)
# VH: EVQLVESGGGLVKPGGSLRLSCAASGFTFSDSGMHWIRQAPGKGLEWVSYISSGSSTIHYADTVKGRFTISRDNAKNSLYLQMNSLRAEDTAVYYCASPLYYYGRSYNAVAYWGQGTTVTVSS
# VL: DIQMTQSPSSLSASVGDRVTITCHASQNINVWLSWYQQKPGKVPKLLIYKASDLHTGVPSRFSGSGSGTDFTLTISSLQPEDVATYYCQQGQSYPLTFGGGTKVEIKR
# notes: also called hAb100L1H1
# Columns and labels:
# [1] = target: T1, Rat DLL3 full-length protein on CHO-s cells (rat, UniProt O88671 33-589); assay: FACS on RatDLL3/CHO-s cells
# T1 construct: also called RatDLL3/CHO-s; ratDLL3/CHO-s
# T1 sequence: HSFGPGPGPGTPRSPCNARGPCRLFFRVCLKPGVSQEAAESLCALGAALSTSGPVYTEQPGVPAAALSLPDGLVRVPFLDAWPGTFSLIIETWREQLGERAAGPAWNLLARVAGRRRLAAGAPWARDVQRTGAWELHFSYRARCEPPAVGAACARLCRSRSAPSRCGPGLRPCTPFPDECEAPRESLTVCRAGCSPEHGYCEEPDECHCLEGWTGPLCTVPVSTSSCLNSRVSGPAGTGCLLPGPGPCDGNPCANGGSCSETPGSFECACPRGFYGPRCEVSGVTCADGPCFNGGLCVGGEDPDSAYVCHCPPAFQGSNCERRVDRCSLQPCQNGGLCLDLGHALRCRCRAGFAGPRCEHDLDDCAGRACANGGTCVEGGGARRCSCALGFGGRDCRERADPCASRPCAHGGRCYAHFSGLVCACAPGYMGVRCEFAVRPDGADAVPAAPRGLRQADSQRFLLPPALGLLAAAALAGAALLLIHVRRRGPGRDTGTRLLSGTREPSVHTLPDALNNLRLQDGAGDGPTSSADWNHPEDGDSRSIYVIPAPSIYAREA
# Protocol: Cells of the DLL3-expressing small cell lung cancer cell lines H1184 (ATCC, Cat. No. CRL-5858), DLL3/H82, cynoDLL3/CHO-s, and RatDLL3/CHO-s were suspended at 1×10^6/mL in FACS buffer (1% BSA+pH 7.4 PBS), and the cell suspensions were added to a 96-well round-bottom plate (Corning, 3795) at 100 μL/well. The plate was centrifuged at 300 g for 5 min, and the supernatant was removed. Different concentrations of test antibodies were added at 100 μL/well. The plate was incubated in the dark in a refrigerator at 4° C. for 1 h. After 3 washes by centrifugation at 300 g, working concentrations of APC anti-human IgG Fc (BioLegend, 410712) or PE F(ab′)2-goat anti-human IgG (invitrogen, H10104) were added. The plate was incubated in the dark in a refrigerator at 4° C. for 40 min. After 3 washes by centrifugation at 300 g, the geometric mean fluorescence intensity was measured on an Invitrogen flow cytometer, and the EC50 values of the antibodies in binding to DLL3-expressing cells were calculated.
# [2] = target: T2, Human DLL4 full-length protein on CHO-s cells (human, UniProt Q9NR61 27-685); assay: FACS on human DLL4/CHO-s cells
# T2 construct: also called human DLL4/CHO-s
# T2 sequence (Q9NR61 27-685 limits assumed): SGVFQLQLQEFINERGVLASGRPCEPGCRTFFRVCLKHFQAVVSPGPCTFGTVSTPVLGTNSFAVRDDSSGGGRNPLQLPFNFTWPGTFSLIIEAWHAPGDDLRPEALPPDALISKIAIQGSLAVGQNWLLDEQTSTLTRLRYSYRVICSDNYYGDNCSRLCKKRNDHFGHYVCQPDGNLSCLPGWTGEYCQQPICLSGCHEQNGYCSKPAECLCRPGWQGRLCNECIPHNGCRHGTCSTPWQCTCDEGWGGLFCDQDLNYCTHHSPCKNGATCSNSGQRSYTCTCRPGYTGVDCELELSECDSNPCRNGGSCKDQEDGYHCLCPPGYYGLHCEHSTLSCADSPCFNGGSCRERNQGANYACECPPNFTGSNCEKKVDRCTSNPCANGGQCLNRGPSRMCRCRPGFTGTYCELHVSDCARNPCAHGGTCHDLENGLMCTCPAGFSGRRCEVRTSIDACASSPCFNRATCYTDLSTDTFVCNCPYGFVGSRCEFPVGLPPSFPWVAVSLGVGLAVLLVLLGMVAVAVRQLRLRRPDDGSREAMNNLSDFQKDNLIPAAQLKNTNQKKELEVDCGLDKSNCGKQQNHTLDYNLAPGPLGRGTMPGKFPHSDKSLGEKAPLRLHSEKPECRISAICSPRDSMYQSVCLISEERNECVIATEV
# Protocol: Stably transfected human DLL1/CHO-s and human DLL4/CHO-s cells were suspended at 1×10⁶/mL in FACS buffer (containing 1% BSA and pH 7.4 PBS), and the cell suspensions were added to a 96-well round-bottom plate (Corning, 3795) at 100 µL/well. The plate was centrifuged at 300 g for 5 min, and the supernatant was removed. Test antibodies were added at 100 μL/well, and the plate was incubated in the dark in a refrigerator at 4° C. for 1 h. After 3 washes by centrifugation at 300 g, working concentrations of PE F(ab′)2-goat anti-human IgG Fc secondary antibody (invitrogen, H10104) were added. The plate was incubated in the dark in a refrigerator at 4° C. for 40 min. After 3 washes by centrifugation at 300 g, the geometric mean fluorescence intensity was measured on an Invitrogen flow cytometer.
# [3] = target: T3, human DLL3 (ACRO, DLL3-H52H4) (human, UniProt Q9NYJ7 27-479); assay: SPR (Biacore 8K), antibody captured on Protein A chip, 1:1 fit
# T3 construct: bought antigen of the Biacore assay; construct not described
# T3 sequence (looked up): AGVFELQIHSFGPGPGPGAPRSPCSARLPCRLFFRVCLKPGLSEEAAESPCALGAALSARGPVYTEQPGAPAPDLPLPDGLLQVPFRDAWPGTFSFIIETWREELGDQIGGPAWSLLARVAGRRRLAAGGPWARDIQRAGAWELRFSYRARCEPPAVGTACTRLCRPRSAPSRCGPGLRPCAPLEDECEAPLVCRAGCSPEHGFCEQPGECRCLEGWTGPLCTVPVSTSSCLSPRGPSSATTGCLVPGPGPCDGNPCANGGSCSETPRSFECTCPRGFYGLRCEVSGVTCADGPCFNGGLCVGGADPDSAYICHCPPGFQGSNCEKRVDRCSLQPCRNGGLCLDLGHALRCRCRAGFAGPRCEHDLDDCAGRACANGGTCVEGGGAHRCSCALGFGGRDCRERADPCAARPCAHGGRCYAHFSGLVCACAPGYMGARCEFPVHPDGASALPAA
# From the text: Test antibodies were affinity-captured with a Protein A biosensor chip (Cat. #29127556, Cytiva) for 18 seconds, and then the antigens human DLL3 (ACRO, DLL3-H52H4), cynomolgus monkey DLL3 (KACTUS, DLL-RM103), and mouse DLL3 (KACTUS, DLL-MM103) were allowed to flow over the surface of the chip for 180 seconds, followed by 600 seconds of dissociation. Reaction signals were detected in real time using a Biacore 8K (Cytiva) instrument to obtain association and dissociation curves. After the dissociation in each experimental cycle, the biosensor chip was washed and regenerated with a 10 mM glycine-hydrochloric acid solution (pH 1.5) (Cat. #BR-1003-54, Cytiva). A 1:1 model was fit to the data. The results are shown in Table 12-1, Table 12-2, and Table 12-3.
Binder,EC50 [1] [nM],binding result [2],Kd [3] [nM],binding result [1]
B1,1.42,no binding,0.594,
B2,,no binding,0.471,no binding
